Reference: US20150160214A1, “Quantitation of Cellular Adhesion Dynamics Across Immobilized Receptors Under Rheological Shear Flow” (Mayo Foundation for Medical Education and Research, priority 2013, published 2015)
Where “and” joins values, the source holds several entries; their conditions need not be identical. Equal values may be shown once.

Experiments:
Format in all cases: physicochemical
[1] = Temperature-induced unfolding by fluorescence and CD, irreversible models (Example 1)
Experimental: A1-1261 and A1-1238 were thermally unfolded using intrinsic protein tyrosine and tryptophan fluorescence with an excitation λ=280 nm and emission λ=359 nm and CD monitored at λ=222 nm. […] As the scan rate increases, the midpoint of the transition (apparent TM) also increases.
Thermal transitions were analyzed in terms of the observed midpoint of the transition, apparent TM, and also by a two-state irreversible model or a three-state irreversible model as described in the Supplement and the calculated parameters are summarized in FIGS. 5A to 5D. […] If the protein unfolding was at equilibrium and reversible, this apparent TM would remain constant at all scan rates. Extrapolation of the TM to a scan rate of 0° Celsius/min provides an indication of where reversible unfolding would occur under equilibrium conditions; 50° Celsius for A1-1238 and 48° Celsius for A1-1261 from both CD and fluorescence data. For the second transition observed by fluorescence that occurs with A1-1238, the TM extrapolates to about 73° Celsius in the limit of zero scan rate. Analysis by the two-state and three-state irreversible models yields an R^2>0.99 for both fluorescence and CD and a transition temperature, T*, that is independent of the temperature scan rate. In addition, the enthalpies of the transitions are independent of scan rate within experimental error FIG. 5B. FIGS. 5C and 5D show the resulting average T* and ΔHT*^‡±the standard deviation obtained from the fitting of the primary thermal transitions in FIG. 4A to 4D for CD and fluorescence and a total average for both methods. […] However, the unfolding enthalpy was statistically larger for A1-1238 (250±15 kJ/mol) than for A1-1261 (204±10 kJ/mol). The average T* and ΔHT*^‡ observed in the second fluorescence transition of A1-1238 is 89.1±2.2° Celsius and 360±14 kJ/mol.
Prior to all spectroscopic thermal scans, protein samples were equilibrated at 10° Celsius for 15 min to obtain a stable baseline. CD thermal scans between 10 and 95° Celsius were recorded at λ=222 nm using a protein concentration of 1 or 2 μM in a 1 cm quartz cell under moderate stirring. Scan rates were 0.5, 1.0, 1.5 and 2.0° Celsius/min. Integration time for each data point was 20 s with a 1 nm bandwidth. Fluorescence thermal scans between 10 and 95 Celsius were recorded at an emission λ=359 nm after excitation λ=280 nm or λ=295 nm using 2 μM protein in a 1 cm quartz cell with moderate stirring. Scan rates were 0.4 or 0.6, 0.9, 1.6 and 2.0° Celsius/min. At each temperature, relative fluorescence intensity was collected for 4 s and averaged. Thermal scans in the presence of N-terminal peptide at 2.0° Celsius/min were preceded by 1 h incubations at 20° Celsius with 0.02-300 μM peptide.
For an irreversible two-state transition, unfolding is kinetically controlled by a first order rate constant that varies with temperature according to the Arrhenius equation (Atkins:1994). In our analysis the inventor refers to the intermediate state as the final irreversible state for all thermal transitions involving the unfolding of A1-1261 in the absence of peptide when monitored by fluoresence, CD and DSC and for A1-1238 when monitored by CD and DSC. The following equations derived below are equally valid for any two state irreversible transitions The activation energy in going from N->I is ΔG^‡=−RT ln k^‡ and the inventor expands ln k^‡ as a function of temperature in terms of Δβ=(β−β*)=(1/RT−1/RT*) using a Taylor series, where T̂* is the temperature at which ΔG^‡=0.

[2] = Urea-induced unfolding monitored by CD at 222 nm (Example 1); settings: 25° Celsius, native to intermediate transition
Experimental: A1-1261 and A1-1238 were chemically unfolded with urea in order to compare the obtained thermodynamic parameters. The unfolding was monitored at 25° Celsius by CD at λ=222 nm, FIG. 3B. For both proteins, unfolding through an intermediate state was observed, as has been previously reported (Auton:2009). The thermodynamic parameters are illustrated in the insets of FIG. 3B and listed in the Supplement Table 2. Relative to A1-1261, A1-1238 has a marginal loss in unfolding cooperativity (+0.55±0.38 kJ/mol/M) of the transition and the midpoint, cm, of A1-1238 is increased by +0.27±0.04 M. These two contributions to the ΔG^0 cancel each other so that the N-terminal peptide is neither stabilizing nor destabilizing the conformational transition.
Isothermal urea induced unfolding of A1-1261 and A1-1238 at 25° Celsius was monitored via CD at λ=222 nm using a quartz cuvette with a path length of 1 mm and a protein concentration of 10 μM after an overnight equilibration. CD-signal was averaged for 10 min, corrected for the corresponding CD-signal of the buffer and converted into mean molar ellipticities per amino acid residue (θMRW).
Isothermal urea unfolding was analyzed using a three state reversible model (N<->I<->D) as previously described (Auton:2009, Auton:2007). All thermal unfolding transitions were analyzed according to the irreversible models provided in the Supporting Information. […]

[3] = Acrylamide quenching of tryptophan fluorescence (Stern-Volmer)
Experimental: This was also confirmed via acrylamide induced tryotophan fluorescence quenching performed with an excitation wavelength of 295 nm.
Initially a quenching determination was performed with disulfide-intact A1 at 20° Celsius and at 1° Celsius in order to distinguish between static and collisional quenching. […] Clear evidence for collisional quenching could be obtained for the A1-domain since the Stern-Volmer constant decreased from 2.6±0.03 to 2.2±0.03 M−1, FIG. 16A, ruling out a static quenching mechanism.
Acrylamide quenching of tryptophan was performed using an excitation wavelength of 295 nm. After the addition of a certain amount of buffered acrylamide solution the protein solution was equilibrated for ˜5 min and then a fluorescence spectrum between 320 and 400 nm was recorded. Stern-Volmer constants were determined from the fluorescence intensity at 359 nm using the Stern-Volmer equation as described by Lakowicz (Lakowicz:2006)
where KD is the Stern-Volmer quenching constant and KD-1 is the concentration of acrylamide at which F0/F=2 and 50% of the fluorescence intensity is quenched.

[4] = covalently linked N-terminal peptide

A1-1238: Recombinant human vWF A1 domain, amino acids Q1238-P1471, with N-terminal 6×His-Tag, disulfide intact
Apparent TM extrapolated to a scan rate of 0° Celsius/min, primary transition ([1]; CD and fluorescence data): 50 ° Celsius and 49.8±1.2 ° Celsius
Transition temperature T*, primary unfolding transition ([1]; average of CD and fluorescence): 63.9±0.6 ° Celsius
Unfolding enthalpy ΔHT*‡, primary unfolding transition ([1]; average of CD and fluorescence): 59.8 ± 3.59 kcal/mol
Average T*, second fluorescence transition [1, 4]: 89.1±2.2 ° Celsius
Average ΔHT*‡, second fluorescence transition [1, 4]: 86 ± 3.35 kcal/mol
Apparent TM extrapolated to zero scan rate, second transition by fluorescence ([1]; fluorescence): about 73 ° Celsius
Change in midpoint cm relative to A1-1261 [2]: +0.27±0.04 M
Change in unfolding cooperativity (m-value) relative to A1-1261 [2]: +0.55±0.38 kJ/mol/M
Stern-Volmer constant ([3]; 2 M GdnHCl): 6.0 ± 0.1 M⁻¹
Stern-Volmer constant ([3]; buffer, 1° Celsius): 2.2 ± 0.03 M⁻¹
Stern-Volmer constant ([3]; buffer, 20° Celsius): 2.6 ± 0.03 M⁻¹
